# Measured values reported in paper PMC4837482, “The complex binding mode of the peptide hormone H2 relaxin to its receptor RXFP1” (Nature Communications, 2016).
# Positions count from the first letter of the chain named.
# Key:
# Test in all cases: cAMP activity assay (pCRE β-galactosidase reporter), transfected HEK293T cells
# Assay type in all cases: cell-based
# RXFP1 = molecular target: T1, RXFP1 (Homo sapiens, UniProt Q9HBX9); settings: construct RXFP1 (wild type), ±s.e.m.
# T1 construct: transiently transfected human embryonic kidney (HEK) 293T cells expressing full-length RXFP1 and mutants; expressed in transfected cells; host or cells: HEK293T
# T1 sequence (Q9HBX9 1-757): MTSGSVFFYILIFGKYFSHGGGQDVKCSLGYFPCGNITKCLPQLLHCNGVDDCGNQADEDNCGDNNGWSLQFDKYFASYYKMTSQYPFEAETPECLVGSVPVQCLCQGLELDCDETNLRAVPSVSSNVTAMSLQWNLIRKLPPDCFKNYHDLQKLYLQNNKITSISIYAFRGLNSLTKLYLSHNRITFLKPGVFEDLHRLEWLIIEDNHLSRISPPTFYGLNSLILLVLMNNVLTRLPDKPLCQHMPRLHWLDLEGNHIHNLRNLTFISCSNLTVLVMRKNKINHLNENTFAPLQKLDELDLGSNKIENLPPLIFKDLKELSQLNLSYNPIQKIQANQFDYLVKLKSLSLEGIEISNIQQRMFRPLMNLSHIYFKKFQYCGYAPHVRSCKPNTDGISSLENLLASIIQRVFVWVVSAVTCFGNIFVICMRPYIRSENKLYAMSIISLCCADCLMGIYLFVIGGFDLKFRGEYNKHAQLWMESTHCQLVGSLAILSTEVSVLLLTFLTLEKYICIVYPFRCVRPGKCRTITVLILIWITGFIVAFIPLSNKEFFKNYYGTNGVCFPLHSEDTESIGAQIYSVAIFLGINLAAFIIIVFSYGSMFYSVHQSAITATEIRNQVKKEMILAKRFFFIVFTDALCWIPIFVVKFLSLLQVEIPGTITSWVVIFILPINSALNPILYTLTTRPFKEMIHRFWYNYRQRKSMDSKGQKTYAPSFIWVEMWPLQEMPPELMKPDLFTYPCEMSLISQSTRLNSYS
# Summary of the method: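 Relaxin-stimulated cells go through overnight storage at −80 °C, two 10-min lysis steps at pH 8.0 with shaking, and chlorophenol red-β-D-galactopyranoside development. Output at 570 nm is scaled against the 5 μM Forskolin maximum.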
# RXFP1 D51A = molecular target: T2, RXFP1 D51A (Homo sapiens, UniProt Q9HBX9, D51A/D73A); settings: construct D51A, ±s.e.m.
# T2 construct: cells expressing full-length RXFP1 and mutants; expressed in transfected cells; host or cells: HEK293T
# T2 sequence (Q9HBX9 23-757 D51A/D73A limits assumed): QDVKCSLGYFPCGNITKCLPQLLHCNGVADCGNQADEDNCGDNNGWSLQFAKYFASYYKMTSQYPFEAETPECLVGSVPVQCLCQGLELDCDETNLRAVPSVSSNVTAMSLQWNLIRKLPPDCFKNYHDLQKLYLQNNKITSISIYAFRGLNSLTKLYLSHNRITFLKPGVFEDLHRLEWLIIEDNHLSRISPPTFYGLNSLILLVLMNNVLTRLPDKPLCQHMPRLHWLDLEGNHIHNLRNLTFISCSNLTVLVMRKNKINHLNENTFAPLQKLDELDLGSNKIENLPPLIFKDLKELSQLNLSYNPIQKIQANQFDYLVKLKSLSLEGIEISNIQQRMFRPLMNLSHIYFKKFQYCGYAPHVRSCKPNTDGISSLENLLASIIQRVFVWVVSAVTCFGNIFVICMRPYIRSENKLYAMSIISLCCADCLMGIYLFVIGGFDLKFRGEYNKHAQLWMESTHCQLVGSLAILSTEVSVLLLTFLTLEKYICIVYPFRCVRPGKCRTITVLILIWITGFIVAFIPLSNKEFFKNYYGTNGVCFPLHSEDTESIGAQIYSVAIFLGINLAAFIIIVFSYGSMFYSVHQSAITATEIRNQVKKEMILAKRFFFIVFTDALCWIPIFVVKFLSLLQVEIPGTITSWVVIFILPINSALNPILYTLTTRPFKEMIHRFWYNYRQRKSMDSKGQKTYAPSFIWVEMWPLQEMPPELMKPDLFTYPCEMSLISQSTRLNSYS
# Summary of the method: (§1)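 Receptor signalling is measured as CRE-driven β-galactosidase activity after H2 relaxin exposure, using a colorimetric substrate read at 570 nm. Values are normalised to 5 μM Forskolin, pooled from at least three independent triplicate experiments.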
# RXFP1 F50A = molecular target: T3, RXFP1 F50A (Homo sapiens, UniProt Q9HBX9, F72A); settings: construct F50A, ±s.e.m.
# T3 construct: expressed in transfected cells; host or cells: HEK293T
# T3 sequence (Q9HBX9 23-757 F72A limits assumed): T2 sequence (Q9HBX9 23-757 D51A/D73A limits assumed) with A29D, F50A, A51D
# Summary of the method: as §1
# [1] = percentage of maximum response to 5 μM Forskolin
substance,measurement,setting,value
H2 relaxin: two-chain 6-kDa peptide hormone structurally related to insulin; recombinant human gene-2 H2 relaxin provided by Corthera,H2 relaxin pEC50,RXFP1; cAMP reporter,10.97±0.05 (6)
same,H2 relaxin Emax,RXFP1; [1],116.3±4.2 (6) %
same,H2 relaxin pEC50,RXFP1 D51A; cAMP reporter,11.01±0.56 (3)
same,H2 relaxin Emax,RXFP1 D51A; [1],96.5±4.0 (3) %
same,H2 relaxin pEC50,RXFP1 F50A; cAMP reporter,9.45±0.07 (4)
same,H2 relaxin Emax,RXFP1 F50A; [1],91.9±2.1 (4) %
